# Patent US20260209293A1 (Novo Nordisk, published 2026)
# *1 amine or outer side, *2 acyl side, *3 side chain or, on linkers, in order; H or OH if unused. The star is where a group is joined. C18 diacid = O=C(O)CCCCCCCCCCCCCCCCC(=O)*; γGlu = O=C(O)[C@H](CCC(=O)[*:2])N[*:1]
# T1: human amylin-3(a) receptor (human, UniProt P30988 25-474; O60896 24-148)
# T1 sequence (looked up) 1: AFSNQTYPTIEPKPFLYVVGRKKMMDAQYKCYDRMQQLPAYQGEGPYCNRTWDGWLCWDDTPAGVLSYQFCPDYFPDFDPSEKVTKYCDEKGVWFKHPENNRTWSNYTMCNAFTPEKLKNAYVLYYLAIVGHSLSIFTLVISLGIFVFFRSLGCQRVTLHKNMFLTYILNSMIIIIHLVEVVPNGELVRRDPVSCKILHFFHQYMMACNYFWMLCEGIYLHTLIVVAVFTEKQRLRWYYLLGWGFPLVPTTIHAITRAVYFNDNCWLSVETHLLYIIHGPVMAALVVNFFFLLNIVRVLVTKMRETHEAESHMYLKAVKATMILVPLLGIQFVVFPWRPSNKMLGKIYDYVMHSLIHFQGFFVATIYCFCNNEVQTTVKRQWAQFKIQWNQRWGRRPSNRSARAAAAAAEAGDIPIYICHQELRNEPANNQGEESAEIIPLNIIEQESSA
# T1 sequence (looked up) 2: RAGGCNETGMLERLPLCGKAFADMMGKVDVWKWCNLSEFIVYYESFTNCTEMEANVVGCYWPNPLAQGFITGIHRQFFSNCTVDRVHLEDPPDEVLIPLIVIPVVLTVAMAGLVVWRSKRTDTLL
# T2: human calcitonin receptor (a) (human, UniProt P30988 25-474)
# T2 sequence (looked up): T1 sequence (looked up) 1
# B1: N^1-[(4S)-4-carboxy-4-(17-carboxyheptadecanoylamino)butanoyl]-[Ala1,Gly2,Glu3,Leu4,Ser5,Ala7,Gln8,Glu14,His17,Asp21, Pro22,Pro27,Asp31, Pro34,Asp35, … (peptide)
# peptide: {C18 diacid-γGlu}-AGELSTAQTQRLAEFLHHSSDPFGAIPSSTDVGPDTP-NH2
# SMILES: CC[C@H](C)[C@H](NC(=O)[C@H](C)NC(=O)CNC(=O)[C@H](Cc1ccccc1)NC(=O)[C@@H]1CCCN1C(=O)[C@H](CC(=O)O)NC(=O)[C@H](CO)NC(=O)[C@H](CO)NC(=O)[C@H](Cc1c[nH]cn1)NC(=O)[C@H](Cc1c[nH]cn1)NC(=O)[C@H](CC(C)C)NC(=O)[C@H](Cc1ccccc1)NC(=O)[C@H](CCC(=O)O)NC(=O)[C@H](C)NC(=O)[C@H](CC(C)C)NC(=O)[C@H](CCCNC(=N)N)NC(=O)[C@H](CCC(N)=O)NC(=O)[C@@H](NC(=O)[C@H](CCC(N)=O)NC(=O)[C@H](C)NC(=O)[C@@H](NC(=O)[C@H](CO)NC(=O)[C@H](CC(C)C)NC(=O)[C@H](CCC(=O)O)NC(=O)CNC(=O)[C@H](C)NC(=O)CC[C@H](NC(=O)CCCCCCCCCCCCCCCCC(=O)O)C(=O)O)[C@@H](C)O)[C@@H](C)O)C(=O)N1CCC[C@H]1C(=O)N[C@@H](CO)C(=O)N[C@@H](CO)C(=O)N[C@H](C(=O)N[C@@H](CC(=O)O)C(=O)N[C@H](C(=O)NCC(=O)N1CCC[C@H]1C(=O)N[C@@H](CC(=O)O)C(=O)N[C@H](C(=O)N1CCC[C@H]1C(N)=O)[C@@H](C)O)C(C)C)[C@@H](C)O
# B2: N^1-[(4S)-4-carboxy-4-(17-carboxyheptadecanoylamino)butanoyl]-[Ala1,Ser2,Leu4,Ala7,Gln8,Glu14,His17,Asp21,Pro22,Pro27,Asp31, Pro34,Asp35,Pro37]-human amylin (peptide)
# peptide: {C18 diacid-γGlu}-ASNLATAQTQRLAEFLHHSSDPFGAIPSSTDVGPDTP-NH2
# SMILES: CC[C@H](C)[C@H](NC(=O)[C@H](C)NC(=O)CNC(=O)[C@H](Cc1ccccc1)NC(=O)[C@@H]1CCCN1C(=O)[C@H](CC(=O)O)NC(=O)[C@H](CO)NC(=O)[C@H](CO)NC(=O)[C@H](Cc1c[nH]cn1)NC(=O)[C@H](Cc1c[nH]cn1)NC(=O)[C@H](CC(C)C)NC(=O)[C@H](Cc1ccccc1)NC(=O)[C@H](CCC(=O)O)NC(=O)[C@H](C)NC(=O)[C@H](CC(C)C)NC(=O)[C@H](CCCNC(=N)N)NC(=O)[C@H](CCC(N)=O)NC(=O)[C@@H](NC(=O)[C@H](CCC(N)=O)NC(=O)[C@H](C)NC(=O)[C@@H](NC(=O)[C@H](C)NC(=O)[C@H](CC(C)C)NC(=O)[C@H](CC(N)=O)NC(=O)[C@H](CO)NC(=O)[C@H](C)NC(=O)CC[C@H](NC(=O)CCCCCCCCCCCCCCCCC(=O)O)C(=O)O)[C@@H](C)O)[C@@H](C)O)C(=O)N1CCC[C@H]1C(=O)N[C@@H](CO)C(=O)N[C@@H](CO)C(=O)N[C@H](C(=O)N[C@@H](CC(=O)O)C(=O)N[C@H](C(=O)NCC(=O)N1CCC[C@H]1C(=O)N[C@@H](CC(=O)O)C(=O)N[C@H](C(=O)N1CCC[C@H]1C(N)=O)[C@@H](C)O)C(C)C)[C@@H](C)O
# B3: N^1-[(4S)-4-carboxy-4-(17-carboxyheptadecanoylamino)butanoyl]-[Ala1,Gly2,Ser3,Leu4,Ser5,Ala7,Gln8,Ala10,Glu14,His17,Asp21, Pro25,Pro28,Pro29,Asp31,Pro37]-human … (peptide)
# peptide: {C18 diacid-γGlu}-AGSLSTAQTARLAEFLHHSSDNFGPILPPTDVGSNTP-NH2
# SMILES: CC[C@H](C)[C@H](NC(=O)[C@@H]1CCCN1C(=O)CNC(=O)[C@H](Cc1ccccc1)NC(=O)[C@H](CC(N)=O)NC(=O)[C@H](CC(=O)O)NC(=O)[C@H](CO)NC(=O)[C@H](CO)NC(=O)[C@H](Cc1c[nH]cn1)NC(=O)[C@H](Cc1c[nH]cn1)NC(=O)[C@H](CC(C)C)NC(=O)[C@H](Cc1ccccc1)NC(=O)[C@H](CCC(=O)O)NC(=O)[C@H](C)NC(=O)[C@H](CC(C)C)NC(=O)[C@H](CCCNC(=N)N)NC(=O)[C@H](C)NC(=O)[C@@H](NC(=O)[C@H](CCC(N)=O)NC(=O)[C@H](C)NC(=O)[C@@H](NC(=O)[C@H](CO)NC(=O)[C@H](CC(C)C)NC(=O)[C@H](CO)NC(=O)CNC(=O)[C@H](C)NC(=O)CC[C@H](NC(=O)CCCCCCCCCCCCCCCCC(=O)O)C(=O)O)[C@@H](C)O)[C@@H](C)O)C(=O)N[C@@H](CC(C)C)C(=O)N1CCC[C@H]1C(=O)N1CCC[C@H]1C(=O)N[C@H](C(=O)N[C@@H](CC(=O)O)C(=O)N[C@H](C(=O)NCC(=O)N[C@@H](CO)C(=O)N[C@@H](CC(N)=O)C(=O)N[C@H](C(=O)N1CCC[C@H]1C(N)=O)[C@@H](C)O)C(C)C)[C@@H](C)O
# B4: N^1-[(4S)-4-carboxy-4-(17-carboxyheptadecanoylamino)butanoyl]-[Ala1,Ser2,His3,Leu4,Ser5,Ala7,Gln8,Ala10,Glu14,His17,Asp21,Pro25,Pro28,Pro29,Asp31,Pro37]-human … (peptide)
# peptide: {C18 diacid-γGlu}-ASHLSTAQTARLAEFLHHSSDNFGPILPPTDVGSNTP-NH2
# SMILES: CC[C@H](C)[C@H](NC(=O)[C@@H]1CCCN1C(=O)CNC(=O)[C@H](Cc1ccccc1)NC(=O)[C@H](CC(N)=O)NC(=O)[C@H](CC(=O)O)NC(=O)[C@H](CO)NC(=O)[C@H](CO)NC(=O)[C@H](Cc1c[nH]cn1)NC(=O)[C@H](Cc1c[nH]cn1)NC(=O)[C@H](CC(C)C)NC(=O)[C@H](Cc1ccccc1)NC(=O)[C@H](CCC(=O)O)NC(=O)[C@H](C)NC(=O)[C@H](CC(C)C)NC(=O)[C@H](CCCNC(=N)N)NC(=O)[C@H](C)NC(=O)[C@@H](NC(=O)[C@H](CCC(N)=O)NC(=O)[C@H](C)NC(=O)[C@@H](NC(=O)[C@H](CO)NC(=O)[C@H](CC(C)C)NC(=O)[C@H](Cc1c[nH]cn1)NC(=O)[C@H](CO)NC(=O)[C@H](C)NC(=O)CC[C@H](NC(=O)CCCCCCCCCCCCCCCCC(=O)O)C(=O)O)[C@@H](C)O)[C@@H](C)O)C(=O)N[C@@H](CC(C)C)C(=O)N1CCC[C@H]1C(=O)N1CCC[C@H]1C(=O)N[C@H](C(=O)N[C@@H](CC(=O)O)C(=O)N[C@H](C(=O)NCC(=O)N[C@@H](CO)C(=O)N[C@@H](CC(N)=O)C(=O)N[C@H](C(=O)N1CCC[C@H]1C(N)=O)[C@@H](C)O)C(C)C)[C@@H](C)O
# B5: N^1-[(4S)-4-carboxy-4-(17-carboxyheptadecanoylamino)butanoyl]-[Ala1,Gly2,Ser3,Leu4,Ser5,Ala7,Gln8,Ala10,Glu14,His17,Pro25,Pro28,Pro29,Asp31,Glu35,Pro37],des-(19 … (peptide)
# peptide: {C18 diacid-γGlu}-AGSLSTAQTARLAEFLHHFGPILPPTDVGSETP-NH2
# SMILES: CC[C@H](C)[C@H](NC(=O)[C@@H]1CCCN1C(=O)CNC(=O)[C@H](Cc1ccccc1)NC(=O)[C@H](Cc1c[nH]cn1)NC(=O)[C@H](Cc1c[nH]cn1)NC(=O)[C@H](CC(C)C)NC(=O)[C@H](Cc1ccccc1)NC(=O)[C@H](CCC(=O)O)NC(=O)[C@H](C)NC(=O)[C@H](CC(C)C)NC(=O)[C@H](CCCNC(=N)N)NC(=O)[C@H](C)NC(=O)[C@@H](NC(=O)[C@H](CCC(N)=O)NC(=O)[C@H](C)NC(=O)[C@@H](NC(=O)[C@H](CO)NC(=O)[C@H](CC(C)C)NC(=O)[C@H](CO)NC(=O)CNC(=O)[C@H](C)NC(=O)CC[C@H](NC(=O)CCCCCCCCCCCCCCCCC(=O)O)C(=O)O)[C@@H](C)O)[C@@H](C)O)C(=O)N[C@@H](CC(C)C)C(=O)N1CCC[C@H]1C(=O)N1CCC[C@H]1C(=O)N[C@H](C(=O)N[C@@H](CC(=O)O)C(=O)N[C@H](C(=O)NCC(=O)N[C@@H](CO)C(=O)N[C@@H](CCC(=O)O)C(=O)N[C@H](C(=O)N1CCC[C@H]1C(N)=O)[C@@H](C)O)C(C)C)[C@@H](C)O
# B6: N^1-[(4S)-4-carboxy-4-(17-carboxyheptadecanoylamino)butanoyl]-[Ala1,Gly2,Glu3,Leu4,Ser5,Ala7,Gln8,Ala10,Glu14,His17,Pro25,Pro28,Pro29,Asp31,Glu35,Pro37],des-(19 … (peptide)
# peptide: {C18 diacid-γGlu}-AGELSTAQTARLAEFLHHFGPILPPTDVGSETP-NH2
# SMILES: CC[C@H](C)[C@H](NC(=O)[C@@H]1CCCN1C(=O)CNC(=O)[C@H](Cc1ccccc1)NC(=O)[C@H](Cc1c[nH]cn1)NC(=O)[C@H](Cc1c[nH]cn1)NC(=O)[C@H](CC(C)C)NC(=O)[C@H](Cc1ccccc1)NC(=O)[C@H](CCC(=O)O)NC(=O)[C@H](C)NC(=O)[C@H](CC(C)C)NC(=O)[C@H](CCCNC(=N)N)NC(=O)[C@H](C)NC(=O)[C@@H](NC(=O)[C@H](CCC(N)=O)NC(=O)[C@H](C)NC(=O)[C@@H](NC(=O)[C@H](CO)NC(=O)[C@H](CC(C)C)NC(=O)[C@H](CCC(=O)O)NC(=O)CNC(=O)[C@H](C)NC(=O)CC[C@H](NC(=O)CCCCCCCCCCCCCCCCC(=O)O)C(=O)O)[C@@H](C)O)[C@@H](C)O)C(=O)N[C@@H](CC(C)C)C(=O)N1CCC[C@H]1C(=O)N1CCC[C@H]1C(=O)N[C@H](C(=O)N[C@@H](CC(=O)O)C(=O)N[C@H](C(=O)NCC(=O)N[C@@H](CO)C(=O)N[C@@H](CCC(=O)O)C(=O)N[C@H](C(=O)N1CCC[C@H]1C(N)=O)[C@@H](C)O)C(C)C)[C@@H](C)O
# Key:
# [1] = biological target: T1, human amylin-3(a) receptor; experiment: cell-based or functional assay
# [2] = biological target: T2, human calcitonin receptor (a); experiment: cell-based or functional assay
Binder,"hAmyR3 potency, EC50 (pM); CRE-luciferase reporter in BHK cells [1] [pM]","hCalcR potency, EC50 (pM); CRE-luciferase reporter in BHK cells [2] [pM]"
B1,2.43,1.58
B2,1.88,1.99
B3,1.36,1.58
B4,1.28,1.63
B5,0.81,1.01
B6,1.25,1.03
